Experimental data from the supplement of paper PMC10567573.

B1: SNX8 (parent)
chain: LHQETQLIHVYLPLTSHILRAFVN
B2: WSB1 (parent)
chain: FSHDGLHVASLADDKMVRFWRIDE

Variants of: B1
Assay: protein stability index of a GFP-peptide fusion (GPS, HEK-293T) (PSI 1-6); higher = more stable
Settings: c terminus: a fixed tail appended
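Note: lentivirally expressed fusions sorted by FACS into six bins by GFP to DsRed ratio, PSI derived from sequencing read proportions per bin multiplied by bin number.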

Protein stability index, by site and new letter:
N24: V 3.76 | K 2.06 | D 2.94 | Y 2.88 | A 2.76 | F 3.69 | L 2.37 | T 2.16 | Q 2.93 | H 5.51 | S 2.59

Variants of: B2
Assay: as above
Settings: c terminus: a fixed tail appended

Protein stability index, by site and new letter:
L11: D 2.06 | F 2.5 | A 2.24 | S 1.05 | V 2.03 | H 2.98 | E 1.65 | P 1.47 | Q 1.67 | M 1.69 | I 2.2 | K 2.24 | Y 1.3
V17: I 2.42 | N 1.5 | F 1.58 | Y 1.91 | H 1.51 | D 1.96 | A 1.15 | E 2.75 | P 2.42 | M 1.79 | G 1.03 | S 1.54 | Q 2.14 | C 3.55 | T 1.56
A9: P 1.76 | H 1.7 | D 1.71 | C 2.51 | T 1.25 | Q 1.89 | F 5.19 | N 2.09 | E 2.01 | S 2.17 | W 2.44 | K 1.67 | M 1.79
G5: E 2.67 | D 3.16 | A 1.92 | R 2.07 | M 3.4 | P 1.81 | N 3.01 | L 1.74 | K 1.96 | T 2.27 | Q 2.15 | V 2.61 | I 1.89 | C 1.34
D4: H 1.43 | C 1.73 | K 1.8 | Y 1.65 | E 1.94 | N 2 | T 2.1
D14: Q 1.78 | W 2.53 | I 3.14 | E 1.58 | T 1.83 | Y 1.52 | F 2.93 | M 1.97 | R 1.95 | K 1.96 | H 2.2 | C 2.36 | P 2.05 | L 1.58
K15: L 2.49 | A 2.18 | Q 1.04 | V 2.78 | H 1.65 | N 1.65 | F 1.35 | I 1.49 | W 1.67 | R 2.02 | G 1.69 | S 1.76 | D 2.33 | T 1.44 | C 1.53 | E 2.68 | Y 1.34
L6: I 2.15 | Q 2.33 | H 2.27 | M 2.41 | N 3.26 | A 1.98 | K 1.65 | F 2.43 | P 1.63 | R 1.92 | D 2.07
R21: T 1.17 | C 3.2 | E 1.8 | K 2 | I 3.26 | W 2.12 | D 2.19 | L 1.59 | Y 3.45 | A 1.39 | S 2.12 | G 1.47
V8: L 1.53 | G 1.75 | K 1.1 | I 1.92 | M 1.03 | H 1.83 | N 1.68 | E 2.59 | A 1.94 | T 1.86 | D 1.88 | C 1.38 | R 1.84 | S 2.41
E24: G 1.23 | V 2.12 | N 3 | A 3.01 | W 2.56 | F 2.68 | L 2.85 | Y 1.97 | S 1.61 | R 1.78 | H 1.16 | D 1.56 | K 1.84 | I 2.28 | P 1.86 | T 1.62
S2: V 2.64 | M 3.12 | Y 1.83 | L 1.58 | R 2.61 | D 3.79 | G 1.15 | I 2.46 | E 2.34 | F 1.97 | N 2.78
D23: F 2.1 | H 1.85 | C 1.21 | I 3.06 | E 1.58 | Y 1.34 | M 1.73 | P 3.58 | N 1.8 | T 1.33 | G 2.25 | R 1.45 | K 2.02 | Q 1.9 | W 2.11 | V 1.81
M16: G 1.83 | I 1.4 | Y 1.66 | N 1.36 | T 1.16 | H 2.45 | W 1.57 | E 1.88 | V 2.88 | C 2.98 | R 2.76 | A 1.57 | L 1.56
H7: E 1.84 | M 1.03 | P 2.09 | N 1.68 | F 2.87 | A 1.58 | I 2.17 | Q 1.08 | T 1.65 | K 1.17 | L 1 | R 3.03
R18: Y 1.89 | K 2.12 | C 1.43 | G 1.26 | T 1.08 | S 1.31 | L 1.32 | E 1.92 | Q 2.01 | P 1.83 | A 1.41 | D 2.03 | M 2.37
W20: K 2.69 | C 2.42 | N 2.66 | F 2.09 | D 3.51 | L 1.88 | H 2.67 | M 2.67 | Y 2.26 | V 2.77 | S 2.7 | G 2.79 | A 2.48 | E 3.18 | T 2.85 | I 2.85
S10: D 2.03 | G 1.65 | F 3.47 | L 1.87 | E 2.02 | P 1.63 | Q 1.82 | V 1.11 | K 2.84 | N 1.75 | I 1.69
I22: W 1.77 | Q 2.45 | H 2.31 | G 3.54 | N 2.09 | T 1.65 | F 1.63 | Y 1.69 | P 2.64 | M 2.16 | E 2.54 | S 1.66 | D 2.27
D13: N 2.09 | R 1.42 | E 1.31 | V 2.03 | L 2.13 | M 1.22 | T 1.36 | W 2.68 | G 1.04 | P 1.56 | I 1.21 | C 1.02 | K 1.88 | H 3.41
H3: A 2.89 | T 1.89 | M 1.79 | W 1.62 | Y 1.19 | K 2.08 | L 1.37 | G 2.95 | E 1.71 | P 1.67 | Q 2.03 | N 1.92 | S 3.07 | D 2.2 | C 3.26
F1: Y 2.49 | H 3.01 | G 3.43 | C 2.99 | W 2.3 | E 4.03 | L 3.14 | A 2.85 | Q 3.9 | P 3.52 | T 3.73 | M 3.81 | S 3.33 | D 4.46 | N 3.25 | K 3.4
A12: H 2.99 | D 2.32 | L 2.04 | S 1.35 | V 1.75 | G 3.04 | I 1.93 | Q 2.55 | N 2.43 | P 1.57 | T 1.79
F19: M 3.75 | D 3.37 | W 1.57 | E 3.92 | Y 2.33 | N 2.62 | G 2.38 | L 3.32 | V 2.15 | I 1.49 | R 3.11 | H 2.66 | C 2.32 | T 3.13 | Q 2.03 | P 2.65
